Laboratory results reported in patent US20250295802A1, “HER3 ANTIBODY-DRUG CONJUGATE AND USE THEREOF” (DUALITY BIOLOGICS (SUZHOU) CO., LTD., priority 2022, published 2025).

Columns and labels:
HER3 [1] = molecular target: T1, HER3 (Homo sapiens, UniProt P21860); assay: ELISA binding affinity after repeated freeze-thaw; details: 0 freeze-thaw cycles
T1 construct: human Fc (huFc)
Protocol: (§1) ELISA assay: human HER2-ex-huFc, human HER3-huFc, and human EGFR-his were diluted to 2 μg/mL and 50 μL/well in a 96-well plate and incubated at 4° C. overnight. The plate was washed with 0.5×PBST, then incubated with 100 μL of a blocking buffer (PBS+3% BSA) at 37° C. for 2 h, and washed with 0.5×PBST. The 3F8 antibody was diluted with the blocking buffer in a 1:3 serial gradient, added at 50 μL/well, incubated at 37° C. for 40-50 min, and then washed with 0.5×PBST. Goat anti-mouse IgG-HRP (Southern Biotech, 1030-05) was diluted at 1:20000 with the blocking buffer, added at 50 μL/well, incubated in the dark for 30 min, and then washed with 0.5×PBST. Prior to assay, 50 μL of luminol buffer A+B was added to each well in a 1:1 mix.
(§2) Antibody stability test: the purified antibody at 5 mg/mL was stored at 4° C. as regular practice, incubated at 40° C. for 7 days and 14 days for heat stability evaluation, transferred to a glycine solution at pH 3.5 for regeneration, and stored for 2, 4 and 6 h for acid stability evaluation, or subjected to repeated freeze-thaw treatments for 4 or 6 cycles for freeze-thaw stability evaluation. Aggregation was measured by SEC-HPLC, and binding affinity was determined by ELISA.
Three clones of hu3F8 were freeze-thawed for 3 or 5 cycles, and then subjected to ELISA to measure the binding affinities. The chimeric antibody was subjected to parallel assay.

His-HER3 = molecular target: T2, His-HER3 (Homo sapiens, UniProt P21860); assay: Binding kinetics by Biacore (SPR); details: antibody as ligand, analyte His-HER3, Biacore T200
T2 construct: His
Protocol: Affinity assay by surface plasmon resonance (SPR): antibody kinetics and affinity were determined using Biacore T200. Briefly, the recombinant human HER3 antibody was immobilized on a protein A chip (GE, Cat. 29-1275-5). The antigen concentration, from 50 nM to a final concentration of 0.78125 nM, was generated by 2-fold serial dilution, and affinity and kinetics were determined through the chip.
The binding affinity of humanized 3F8 (hu3F8) and chimeric 3F8. Binding kinetics of 3 humanized 3F8 clones and chimeric 3F8 were determined by Biacore. Three humanized 3F8 clones (clone 1, clone 2 and clone 3) had different heavy chains and one identical light chain. Clone 1, clone 2, and clone 3 corresponded to hu3F8-1, hu3F8-2, and hu3F8-3, respectively.
All data listed in Table 6 were processed using Biacore T200 evaluation software version 3.1.

HER3 [2] = molecular target: T1, HER3; assay: ELISA binding affinity after incubation at 40° C. (heat stress); details: day 0
Protocol: as §1, with “Prior to assay, 50 μL of luminol buffer A+B was added to each well in a 1:1 mix.” left out
as §2, with “ELISA. […]” for “ELISA.”
EC50 assay of the three clones of hu3F8 incubated at 40° C. for different times. The three humanized 3F8 antibody clones were incubated in normal saline at 40° C. for 7 or 14 days, and the binding affinities after heat stress test were determined by ELISA. […]

B1: Chimeric: murine-human chimeric 3F8 antibody with human IgG1 and Igκ constant regions (antibody, V domains shown)
VH: DVQLQESGPGLVKPSQSLSLTCSVTGYSITSAYYWNWIRQFPGDKLEWMGYISYDGRNNFNPSLKNRISITRDTSKNQFFLKLNSVTSGDTATYYCARDGDYDYFDYWGQGTTLTVSS
VL: DIQMTQTTSSLSASLGDRVTISCRASQDISNYLNWYQQKPDGTFKLLIYYTSILHSGVPSRFSGSGSGTDYSLTISNLEQEDIATYFCQQGDTLPPTFGAGTKLELK
HER3 [1]
  EC50 after freeze-thaw stress: 47.06 ng/mL
His-HER3
  ka: 628000 M⁻¹ s⁻¹
  kd: 0.000391 s⁻¹
HER3 [2]
  EC50 after incubation at 40° C.: 47.37 ng/mL
